# Measured values taken from patent publication US12679878B2, “CRF2 receptor agonists and their use in therapy” (SANOFI, priority 2020, dated 2026).
# Starred links: 1 amine or outer side, 2 acyl side, 3 side chain; linkers in the order of their positions; H or OH if unused. Non-standard residues stand in square brackets, D forms with d. Groups on a side chain read outwards from the residue. No end group written: not given here. *: point of attachment. C18 diacid = O=C(O)CCCCCCCCCCCCCCCCC(=O)*; γGlu = O=C(O)[C@H](CCC(=O)[*:2])N[*:1]; AEEA = NCCOCCOCC(=O)O; Aib = CC(C)(N)C(=O)O
# B1: SEQ ID NO: 138 (peptide)
# peptide: IVLSLD[dV]PIKLK([AEEA-AEEA-γGlu-C18 diacid])QILLKQERQKKQREKAEKNKQILAQV-NH2
# modifications: N-terminus assumed
# SMILES: CC[C@H](C)[C@H](N)C(=O)N[C@H](C(=O)N[C@@H](CC(C)C)C(=O)N[C@@H](CO)C(=O)N[C@@H](CC(C)C)C(=O)N[C@@H](CC(=O)O)C(=O)N[C@@H](C(=O)N1CCC[C@H]1C(=O)N[C@H](C(=O)N[C@@H](CCCCN)C(=O)N[C@@H](CC(C)C)C(=O)N[C@@H](CCCCNC(=O)COCCOCCNC(=O)COCCOCCNC(=O)CC[C@H](NC(=O)CCCCCCCCCCCCCCCCC(=O)O)C(=O)O)C(=O)N[C@@H](CCC(N)=O)C(=O)N[C@H](C(=O)N[C@@H](CC(C)C)C(=O)N[C@@H](CC(C)C)C(=O)N[C@@H](CCCCN)C(=O)N[C@@H](CCC(N)=O)C(=O)N[C@@H](CCC(=O)O)C(=O)N[C@@H](CCCNC(=N)N)C(=O)N[C@@H](CCC(N)=O)C(=O)N[C@@H](CCCCN)C(=O)N[C@@H](CCCCN)C(=O)N[C@@H](CCC(N)=O)C(=O)N[C@@H](CCCNC(=N)N)C(=O)N[C@@H](CCC(=O)O)C(=O)N[C@@H](CCCCN)C(=O)N[C@@H](C)C(=O)N[C@@H](CCC(=O)O)C(=O)N[C@@H](CCCCN)C(=O)N[C@@H](CC(N)=O)C(=O)N[C@@H](CCCCN)C(=O)N[C@@H](CCC(N)=O)C(=O)N[C@H](C(=O)N[C@@H](CC(C)C)C(=O)N[C@@H](C)C(=O)N[C@@H](CCC(N)=O)C(=O)N[C@H](C(N)=O)C(C)C)[C@@H](C)CC)[C@@H](C)CC)[C@@H](C)CC)C(C)C)C(C)C
# B2: SEQ ID NO: 135 (peptide)
# peptide: IVLSLD[dV]PIKLK([AEEA-AEEA-γGlu-C18 diacid])QILLKQERQK[Aib]QRQQAEKNKQILAQV-NH2
# modifications: N-terminus assumed
# SMILES: CC[C@H](C)[C@H](N)C(=O)N[C@H](C(=O)N[C@@H](CC(C)C)C(=O)N[C@@H](CO)C(=O)N[C@@H](CC(C)C)C(=O)N[C@@H](CC(=O)O)C(=O)N[C@@H](C(=O)N1CCC[C@H]1C(=O)N[C@H](C(=O)N[C@@H](CCCCN)C(=O)N[C@@H](CC(C)C)C(=O)N[C@@H](CCCCNC(=O)COCCOCCNC(=O)COCCOCCNC(=O)CC[C@H](NC(=O)CCCCCCCCCCCCCCCCC(=O)O)C(=O)O)C(=O)N[C@@H](CCC(N)=O)C(=O)N[C@H](C(=O)N[C@@H](CC(C)C)C(=O)N[C@@H](CC(C)C)C(=O)N[C@@H](CCCCN)C(=O)N[C@@H](CCC(N)=O)C(=O)N[C@@H](CCC(=O)O)C(=O)N[C@@H](CCCNC(=N)N)C(=O)N[C@@H](CCC(N)=O)C(=O)N[C@@H](CCCCN)C(=O)NC(C)(C)C(=O)N[C@@H](CCC(N)=O)C(=O)N[C@@H](CCCNC(=N)N)C(=O)N[C@@H](CCC(N)=O)C(=O)N[C@@H](CCC(N)=O)C(=O)N[C@@H](C)C(=O)N[C@@H](CCC(=O)O)C(=O)N[C@@H](CCCCN)C(=O)N[C@@H](CC(N)=O)C(=O)N[C@@H](CCCCN)C(=O)N[C@@H](CCC(N)=O)C(=O)N[C@H](C(=O)N[C@@H](CC(C)C)C(=O)N[C@@H](C)C(=O)N[C@@H](CCC(N)=O)C(=O)N[C@H](C(N)=O)C(C)C)[C@@H](C)CC)[C@@H](C)CC)[C@@H](C)CC)C(C)C)C(C)C
# B3: SEQ ID NO: 134 (peptide)
# peptide: IVLSLD[dV]PIKLK([AEEA-AEEA-γGlu-C18 diacid])QILLKQERQK[Aib]QREKAEKNKQILAQV-NH2
# modifications: N-terminus assumed
# SMILES: CC[C@H](C)[C@H](N)C(=O)N[C@H](C(=O)N[C@@H](CC(C)C)C(=O)N[C@@H](CO)C(=O)N[C@@H](CC(C)C)C(=O)N[C@@H](CC(=O)O)C(=O)N[C@@H](C(=O)N1CCC[C@H]1C(=O)N[C@H](C(=O)N[C@@H](CCCCN)C(=O)N[C@@H](CC(C)C)C(=O)N[C@@H](CCCCNC(=O)COCCOCCNC(=O)COCCOCCNC(=O)CC[C@H](NC(=O)CCCCCCCCCCCCCCCCC(=O)O)C(=O)O)C(=O)N[C@@H](CCC(N)=O)C(=O)N[C@H](C(=O)N[C@@H](CC(C)C)C(=O)N[C@@H](CC(C)C)C(=O)N[C@@H](CCCCN)C(=O)N[C@@H](CCC(N)=O)C(=O)N[C@@H](CCC(=O)O)C(=O)N[C@@H](CCCNC(=N)N)C(=O)N[C@@H](CCC(N)=O)C(=O)N[C@@H](CCCCN)C(=O)NC(C)(C)C(=O)N[C@@H](CCC(N)=O)C(=O)N[C@@H](CCCNC(=N)N)C(=O)N[C@@H](CCC(=O)O)C(=O)N[C@@H](CCCCN)C(=O)N[C@@H](C)C(=O)N[C@@H](CCC(=O)O)C(=O)N[C@@H](CCCCN)C(=O)N[C@@H](CC(N)=O)C(=O)N[C@@H](CCCCN)C(=O)N[C@@H](CCC(N)=O)C(=O)N[C@H](C(=O)N[C@@H](CC(C)C)C(=O)N[C@@H](C)C(=O)N[C@@H](CCC(N)=O)C(=O)N[C@H](C(N)=O)C(C)C)[C@@H](C)CC)[C@@H](C)CC)[C@@H](C)CC)C(C)C)C(C)C
# B4: SEQ ID NO: 136 (peptide)
# peptide: IVLSLD[dV]PIKLK([AEEA-AEEA-γGlu-C18 diacid])QILLKQERQKK[Aib]RQKAEKNKQILAQV-NH2
# modifications: N-terminus assumed
# SMILES: CC[C@H](C)[C@H](N)C(=O)N[C@H](C(=O)N[C@@H](CC(C)C)C(=O)N[C@@H](CO)C(=O)N[C@@H](CC(C)C)C(=O)N[C@@H](CC(=O)O)C(=O)N[C@@H](C(=O)N1CCC[C@H]1C(=O)N[C@H](C(=O)N[C@@H](CCCCN)C(=O)N[C@@H](CC(C)C)C(=O)N[C@@H](CCCCNC(=O)COCCOCCNC(=O)COCCOCCNC(=O)CC[C@H](NC(=O)CCCCCCCCCCCCCCCCC(=O)O)C(=O)O)C(=O)N[C@@H](CCC(N)=O)C(=O)N[C@H](C(=O)N[C@@H](CC(C)C)C(=O)N[C@@H](CC(C)C)C(=O)N[C@@H](CCCCN)C(=O)N[C@@H](CCC(N)=O)C(=O)N[C@@H](CCC(=O)O)C(=O)N[C@@H](CCCNC(=N)N)C(=O)N[C@@H](CCC(N)=O)C(=O)N[C@@H](CCCCN)C(=O)N[C@@H](CCCCN)C(=O)NC(C)(C)C(=O)N[C@@H](CCCNC(=N)N)C(=O)N[C@@H](CCC(N)=O)C(=O)N[C@@H](CCCCN)C(=O)N[C@@H](C)C(=O)N[C@@H](CCC(=O)O)C(=O)N[C@@H](CCCCN)C(=O)N[C@@H](CC(N)=O)C(=O)N[C@@H](CCCCN)C(=O)N[C@@H](CCC(N)=O)C(=O)N[C@H](C(=O)N[C@@H](CC(C)C)C(=O)N[C@@H](C)C(=O)N[C@@H](CCC(N)=O)C(=O)N[C@H](C(N)=O)C(C)C)[C@@H](C)CC)[C@@H](C)CC)[C@@H](C)CC)C(C)C)C(C)C
# B5: SEQ ID NO: 133 (peptide)
# peptide: IVLSLD[dV]PIKLK([AEEA-AEEA-γGlu-C18 diacid])QILLKQERQK[Aib]QREQAEKNKQILERV-NH2
# modifications: N-terminus assumed
# SMILES: CC[C@H](C)[C@H](N)C(=O)N[C@H](C(=O)N[C@@H](CC(C)C)C(=O)N[C@@H](CO)C(=O)N[C@@H](CC(C)C)C(=O)N[C@@H](CC(=O)O)C(=O)N[C@@H](C(=O)N1CCC[C@H]1C(=O)N[C@H](C(=O)N[C@@H](CCCCN)C(=O)N[C@@H](CC(C)C)C(=O)N[C@@H](CCCCNC(=O)COCCOCCNC(=O)COCCOCCNC(=O)CC[C@H](NC(=O)CCCCCCCCCCCCCCCCC(=O)O)C(=O)O)C(=O)N[C@@H](CCC(N)=O)C(=O)N[C@H](C(=O)N[C@@H](CC(C)C)C(=O)N[C@@H](CC(C)C)C(=O)N[C@@H](CCCCN)C(=O)N[C@@H](CCC(N)=O)C(=O)N[C@@H](CCC(=O)O)C(=O)N[C@@H](CCCNC(=N)N)C(=O)N[C@@H](CCC(N)=O)C(=O)N[C@@H](CCCCN)C(=O)NC(C)(C)C(=O)N[C@@H](CCC(N)=O)C(=O)N[C@@H](CCCNC(=N)N)C(=O)N[C@@H](CCC(=O)O)C(=O)N[C@@H](CCC(N)=O)C(=O)N[C@@H](C)C(=O)N[C@@H](CCC(=O)O)C(=O)N[C@@H](CCCCN)C(=O)N[C@@H](CC(N)=O)C(=O)N[C@@H](CCCCN)C(=O)N[C@@H](CCC(N)=O)C(=O)N[C@H](C(=O)N[C@@H](CC(C)C)C(=O)N[C@@H](CCC(=O)O)C(=O)N[C@@H](CCCNC(=N)N)C(=O)N[C@H](C(N)=O)C(C)C)[C@@H](C)CC)[C@@H](C)CC)[C@@H](C)CC)C(C)C)C(C)C
# B6: SEQ ID NO: 137 (peptide)
# peptide: IVLSLD[dV]PIKLK([AEEA-AEEA-γGlu-C18 diacid])QILLKQERQKKQREQAEKNKQILEQV-NH2
# modifications: N-terminus assumed
# SMILES: CC[C@H](C)[C@H](N)C(=O)N[C@H](C(=O)N[C@@H](CC(C)C)C(=O)N[C@@H](CO)C(=O)N[C@@H](CC(C)C)C(=O)N[C@@H](CC(=O)O)C(=O)N[C@@H](C(=O)N1CCC[C@H]1C(=O)N[C@H](C(=O)N[C@@H](CCCCN)C(=O)N[C@@H](CC(C)C)C(=O)N[C@@H](CCCCNC(=O)COCCOCCNC(=O)COCCOCCNC(=O)CC[C@H](NC(=O)CCCCCCCCCCCCCCCCC(=O)O)C(=O)O)C(=O)N[C@@H](CCC(N)=O)C(=O)N[C@H](C(=O)N[C@@H](CC(C)C)C(=O)N[C@@H](CC(C)C)C(=O)N[C@@H](CCCCN)C(=O)N[C@@H](CCC(N)=O)C(=O)N[C@@H](CCC(=O)O)C(=O)N[C@@H](CCCNC(=N)N)C(=O)N[C@@H](CCC(N)=O)C(=O)N[C@@H](CCCCN)C(=O)N[C@@H](CCCCN)C(=O)N[C@@H](CCC(N)=O)C(=O)N[C@@H](CCCNC(=N)N)C(=O)N[C@@H](CCC(=O)O)C(=O)N[C@@H](CCC(N)=O)C(=O)N[C@@H](C)C(=O)N[C@@H](CCC(=O)O)C(=O)N[C@@H](CCCCN)C(=O)N[C@@H](CC(N)=O)C(=O)N[C@@H](CCCCN)C(=O)N[C@@H](CCC(N)=O)C(=O)N[C@H](C(=O)N[C@@H](CC(C)C)C(=O)N[C@@H](CCC(=O)O)C(=O)N[C@@H](CCC(N)=O)C(=O)N[C@H](C(N)=O)C(C)C)[C@@H](C)CC)[C@@H](C)CC)[C@@H](C)CC)C(C)C)C(C)C
# Target: human corticotropin-releasing factor 2α (CRF2 α receptor) (human), Q13324
# Sequence (Q13324 20-411): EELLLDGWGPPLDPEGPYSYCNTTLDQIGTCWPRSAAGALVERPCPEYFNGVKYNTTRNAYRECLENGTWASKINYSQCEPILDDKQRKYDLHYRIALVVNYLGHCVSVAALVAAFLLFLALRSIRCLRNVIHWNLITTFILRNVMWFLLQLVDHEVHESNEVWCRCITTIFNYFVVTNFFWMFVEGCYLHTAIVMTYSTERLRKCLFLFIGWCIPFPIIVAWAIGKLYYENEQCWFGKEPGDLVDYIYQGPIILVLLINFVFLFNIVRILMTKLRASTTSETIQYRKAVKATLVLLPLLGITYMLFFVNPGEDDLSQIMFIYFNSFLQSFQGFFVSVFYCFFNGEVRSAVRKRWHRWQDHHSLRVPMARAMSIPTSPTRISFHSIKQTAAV
# Test: cell-based or functional assay
"EC50 [nM], 0% HSA","EC50 [nM], 0.1% HSA",Binder
0.06 nM,3.12 nM,B1
0.04 nM,1.48 nM,B2
0.07 nM,3.44 nM,B3
0.05 nM,2.41 nM,B4
0.09 nM,3.19 nM,B5
0.04 nM,1.78 nM,B6
